# Reference: US20220233706A1 (ANTIKOR BIOPHARMA, published 2022)
# Where two headings read alike, the source gives them in different places.
# B1: scFv (TCT1067)-Auristatin-F-C5 DAR 11.9 (scFv)
# scFv: SGSGGSGQVQLVQSGAEVKKPGESLKISCKGSGYSFTSYWIAWVRQMPGKGLEYMGLIYPGDSDTKYSPSFQGQVTISVDKSVSTAYLQWSSLKPSDSAVYFCARHDVGYCTDRTCAAWPEWLGVWGQGTLVTVSSGGGGSGGGGSGGGGSQSVLTQPPSVSAAPGQKVTISCSGSSSNIGNNYVSWYQQLPGTAPKLLIYGHTNRPAGVPDRFSGSKSGTSASLAISGFRSEDEADYYCASWDYTLSGWVFGGGTKLTVLMASMTGGQQMG
# modifications: Auristatin F-C5 on lysine residues; DAR 13.4 by AAA, 10.4 by MS, average 11.9
# notes: also called TCT1067-AF-C5 ADC 3
# B2: scFv (TCT1067)-DM1-dPEG12 DAR 8 (scFv)
# scFv: B1 scFv
# modifications: Maytansine DM1-dPEG12 (from compound 90) on lysine residues, DAR 8 by LC-MS
# notes: also called TCT1067-Maytansine-PEG(12) DM1 ADC 2; scFv (TCT1067)-DM1 DAR 8
# B3: scFv (TCT1067)-MMAE-PAB-Cit-Val-dPEG9 conjugate, DAR 8.6 (scFv)
# scFv: B1 scFv
# modifications: MMAE-PAB-Cit-Val-dPEG9 (from compound 86) on lysine residues; DAR 9.6 by AAA, 7.5 by LC-MS, average 8.6
# notes: also called TCT1067-MMAE ADC1
# B4: scFv (TCT1067)-DM1-dPEG12 DAR 7 (scFv)
# scFv: B1 scFv
# modifications: Maytansine DM1-dPEG12 on lysine residues, 6-8 additions, average DAR 7 by LC-MS
# notes: also called TCT1067-Maytansine-PEG(12) DM1 ADC 1; compound 124
# B5: scFv (TCT) (scFv)
# scFv: SGSGGSGQVQLVQSGAEVKKPGESLKISCKGSGYSFTSYWIAWVRQMPGKGLEYMGLIYPGDSDTKYSPSFQGQVTISVDKSVSTAYLQWSSLKPSDSAVYFCARHDVGYCSSSNCAAWPEYFQHWGQGTLVTVSSGGGGSGGGGSGGGGSQSVLTQPPSVSAAPGQKVTISCSGSSSNIGNNYVSWYQQLPGTAPKLLIYGHTNRPAGVPDRFSGSKSGTSASLAISGFRSEDEADYYCAAWDDSLSGWVFGGGTKLTVLMASMTGGQQMG
# notes: Anti-HER2 C6.5 scFv with residual Ser, GSGGSG linker and C-terminal T7 tag; also called cleaved TCT; unmodified scFv (TCT)
# B6: scFv TCT-P5C5(1) (DAR 8) (scFv)
# scFv: B5 scFv
# modifications: P5C5 (from P5C5-NHS, compound 6) on lysine residues, DAR 8.17 by AAA
# notes: also called scFv (TCT)-P5C5, DAR = 8; compound 71
# Legend:
# [1] = target: T1, HER2 immobilised on a Biacore chip (UniProt P04626 23-652, limits assumed); assay: Biacore SPR, HER2 amine-coupled to the chip; Auristatin-F-C5 conjugate, DAR 11.9
# T1 construct: also called immobilised HER2 target antigen (Biacore SPR); HER2 chip
# Protocol: (§1) A standard amine-coupling method was used to prepare all Biacore surfaces (CM5 or CM3), as follows. Flow cells were activated individually by injecting a freshly mixed solution of 0.2M EDC in 0.05 M NHS at 30 μl/min. […] Excess NHS ester was deactivated using a 1 M ethanolamine solution. […] The dissociation time was extended to 3600 s for the highest concentration. Surfaces were regenerated with 45 s injection of MgCl₂ […].
# [2] = target: T1, HER2 immobilised on a Biacore chip; assay: Biacore SPR, HER2 amine-coupled to the chip
# [3] = target: T1, HER2 immobilised on a Biacore chip; assay: Biacore SPR, HER2 amine-coupled to the chip; DM1-dPEG12 conjugate, DAR 8
# Protocol: as §1
# [4] = target: T1, HER2 immobilised on a Biacore chip; assay: Biacore SPR, HER2 amine-coupled to the chip; MMAE-PAB-Cit-Val-dPEG9 conjugate, DAR 8.6
# Protocol: as §1
# [5] = target: T1, HER2 immobilised on a Biacore chip; assay: Biacore SPR, HER2 amine-coupled to the chip; DM1-dPEG12 conjugate, DAR 7
# Protocol: as §1
# [6] = target: T2, HER2-Fc (UniProt P04626 23-652); assay: ELISA, plates coated with 10 µg/ml HER2-Fc, anti-T7 peroxidase detection
# T2 construct: Coated at 10 µg/ml on ELISA plates; also called HER2 antigen; immobilised HER2 target antigen (ELISA); not shown: Fc part
# Protocol: (§2) All proteins were detected using the C-terminal T7 Tag which was not expected to be chemically modified (no lysines present). 96-well Immunosorb ELISA plates were coated with 10 μg/ml HER2-Fc in PBS, followed by the test samples, anti-T7 peroxidase conjugate. Extensive PBS washes were in between each layer and detection was with BM-Blue substrate.
# [7] = target: T2, HER2-Fc; assay: ELISA, plates coated with 10 µg/ml HER2-Fc, anti-T7 peroxidase detection; unmodified scFv (TCT), ELISA
# Protocol: (§3) The DAR was determined by AAA as before (Table 11A & B), this time following the release of the di-proline fragment to identify and quantify the P5-based drug. […] All proteins were detected using the C-terminal T7 Tag which was not expected to be chemically modified (no lysines present). 96-well Immunosorb ELISA plates were coated with 10 μg/ml HER2-Fc in PBS, followed by the test samples, anti-T7-peroxidase conjugate. Extensive PBS/tween-20 and PBS washes were in between each layer and detection was with BM-Blue substrate. […] The DARs were verified by AAA (Tables 11A and 11B).
# [8] = target: T2, HER2-Fc; assay: ELISA on plates coated with 10 µg/ml HER2-Fc, detection anti-T7 peroxidase conjugate, absorption at 450 nm
# Protocol: as §3
# [9] = target: T2, HER2-Fc; assay: as above; remark: listed apart in the source
# Protocol: as §2
# [10] = target: T2, HER2-Fc; assay: ELISA, plates coated with 10 µg/ml HER2-Fc, anti-T7 peroxidase detection; scFv TCT-P5C5(1), 8 drugs loaded, ELISA
# Protocol: as §3
Binder,koff [2],kon [2],EC50 (read off the curve) [8],Kd [8],further results
B1,1.76e-05 s⁻¹,21700 M⁻¹ s⁻¹,–,–,Kd [1]: 0.81 nM
B2,3.28e-05 s⁻¹,13200 M⁻¹ s⁻¹,–,–,Kd [3]: 2.48 nM
B3,2.23e-05 s⁻¹,22100 M⁻¹ s⁻¹,–,–,Kd [4]: 1 nM
B4,2.7e-05 s⁻¹,19500 M⁻¹ s⁻¹,–,–,Kd [5]: 1.39 nM
B5,0.00417 s⁻¹,2.8e+06 M⁻¹ s⁻¹,~7 nM,6.97 nM,Kd [6]: 2.5 nM; Kd [7]: 7 nM; Kd [2]: 1.49 nM; EC50 (read off the curve) [9]: 2 to 3 nM
B6,–,–,10 to 20 nM,13 nM,Kd [10]: 13 nM
